Measured values taken from US20260125454A1 (SHANGHAI JUNSHI BIOSCIENCES, published 2026).
Where a chain is given by its changes, count along the chain named.

T1: Biotin-huCGRPaSA (human, not fully specified; biotin (position not given))
T1 construct: exact construct ('aSA') not explained; also called Biotin CGRPaSA; full-length (1-37) CGRP
T1 peptide: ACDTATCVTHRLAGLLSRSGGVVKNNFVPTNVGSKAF

B1: hu67 (antibody, V domains shown)
VH: QVQLVQSGSELKKPGASVKVSCKASGYTFTDFNMHWVRQAPGQGLEWMGYIYPYNGDVVYNQNFTNRFVLSVDSSSSTAYLQISSLKAEDTAVYYCAREGLGGYWGQGTLVTVSS
VL: DIVLTQSPASLAVSPGQRATITCKASQNIDYDGYAYLNWYQQKPGQPPKVLIYSVFNLESGVPARFSGSGSGTDFTLTINPVEADDTANYYCQQSNEFPYTFGQGTKLEIK
notes: 1F5 HC-4/1A2 LC2-2
B2: hu78 (antibody, V domains shown)
VH: B1 VH
VL: DIQLTQSPSSLSASVGDRVTITCKASQNIDYGGYSYMNWYQQKPGKAPKVLIYSVFNLESGVPSRFSGSGSGTDFTLTISSLQPEDFATYYCQQSNEAPYTFGQGTKLEIK
notes: 1F5 HC-4/3H10 LC2-2
B3: hu69 (antibody, V domains shown)
VH: B1 VH
VL: B2 VL with S10F, G32D, S35A, M37L, D74E, A98F
notes: 1F5 HC-4/1A2 LC2-4
B4: hu75 (antibody, V domains shown)
VH: B1 VH
VL: DVQLTQSPSFLSASVGDRVTITCQASQNIDGNTYMNWYQQKPGKAPKVLIYSIFNLESGVPSRFSGSGSGTEFTLTISSLQPEDFATYYCQQSNDYPYTFGQGTKLEIK
notes: 1F5 HC-4/2B8 LC2-2
B5: hu70 (antibody, V domains shown)
VH: B1 VH
VL: EIVLTQSPATLSLSPGERATLSCKASQNIDFDGYAYMNWYQQKPGQAPRVLIYSVFNLESGIPARFSGSGSGTDFTLTISSLEPEDFAVYYCQQSHEVPYTFGQGTKLEIK
notes: 1F5 HC-4/1F5 LC1-1
B6: hu68 (antibody, V domains shown)
VH: B1 VH
VL: B5 VL with F31Y, M37L, H96N, V98F
notes: 1F5 HC-4/1A2 LC2-3
B7: hu72 (antibody, V domains shown)
VH: B1 VH
VL: B1 VL with Y31F, L37M, N96H, F98V
notes: 1F5 HC-4/1F5 LC1-3
B8: hu25 (antibody, V domains shown)
VH: QVQLVQSGAEVKKPGASVKVSCKASGYTFTDYNMHWVRQAPGQRLEWMGYIFPYNGVAVYNRKFRSRVTLTVDTSSSTAYMELSSLRSEDTAVYYCAREGLGGYWGQGTLVTVSS
VL: DIVLTQSPDSLAVSLGERATINCKASQNIDYGGYSYMNWYQQKPGQPPKVLIYSVFNLESGVPDRFSGSGSGTDFTLTISSLQAEDVAVYYCQQSNEAPYTFGQGTKLEIK
notes: 1B2 HC-2/3H10 LC2-1
B9: hu73 (antibody, V domains shown)
VH: B1 VH
VL: B8 VL with Y31F, G32D, S35A, Q42H, N96H, A98V
notes: 1F5 HC-4/1F5 LC1-4
B10: hu99 (antibody, V domains shown)
VH: B8 VH with I51V, F52Y, V57G, A58S, V59A, R62Q, R65K
VL: B8 VL with Y31F, G32D, S35A, Q42H, N96H, A98V
notes: 2A2 HC-1/1F5 LC1-4
B11: hu104 (antibody, V domains shown)
VH: B8 VH with I51V, F52Y, V57G, A58S, V59A, R62Q, R65K
VL: B2 VL
notes: 2A2 HC-1/3H10 LC2-2
B12: hu91 (antibody, V domains shown)
VH: B8 VH with T30I, Y32F, F52Y, G56A, V57D, A58V, R62Q, K63D, R65T, S66N
VL: B2 VL
notes: 1F5 HC-5/3H10 LC2-2
B13: hu47 (antibody, V domains shown)
VH: B8 VH with Y32F, F52Y, V57D, A58V, R62Q, K63N, R65T, S66N
VL: B8 VL with Y31F, G32D, S35A, Q42H, N96H, A98V
notes: 1F5 HC-2/1F5 LC1-4
B14: hu81 (antibody, V domains shown)
VH: B8 VH with T30I, Y32F, F52Y, G56A, V57D, A58V, R62Q, K63D, R65T, S66N
VL: B5 VL with F31Y, M37L, H96N, V98F
notes: 1F5 HC-5/1A2 LC2-3
B15: hu85 (antibody, V domains shown)
VH: B8 VH with T30I, Y32F, F52Y, G56A, V57D, A58V, R62Q, K63D, R65T, S66N
VL: B1 VL with Y31F, L37M, N96H, F98V
notes: 1F5 HC-5/1F5 LC1-3
B16: hu155 (antibody, V domains shown)
VH: B8 VH with A24T, F52S, V57G, A58T, V59A, R62Q, R65K, S66F
VL: B8 VL
notes: 3E5 HC-1/3H10 LC2-1
B17: hu51 (antibody, V domains shown)
VH: B8 VH with Y32F, F52Y, V57D, A58V, R62Q, K63N, R65T, S66N
VL: B8 VL
notes: 1F5 HC-2/3H10 LC2-1
B18: hu26 (antibody, V domains shown)
VH: B8 VH
VL: B2 VL
notes: 1B2 HC-2/3H10 LC2-2
B19: hu29 (antibody, V domains shown)
VH: B8 VH with T30I, Y32F, F52Y, V57D, A58V, R62Q, K63N, R65T, S66N
VL: B5 VL with F31Y, M37L, H96N, V98F
notes: 1F5 HC-1/1A2 LC2-3
B20: hu98 (antibody, V domains shown)
VH: B8 VH with I51V, F52Y, V57G, A58S, V59A, R62Q, R65K
VL: B1 VL with Y31F, L37M, N96H, F98V
notes: 2A2 HC-1/1F5 LC1-3
B21: hu150 (antibody, V domains shown)
VH: B8 VH with A24T, F52S, V57G, A58T, V59A, R62Q, R65K, S66F
VL: B1 VL with Y31F, L37M, N96H, F98V
notes: 3E5 HC-1/1F5 LC1-3
B22: hu156 (antibody, V domains shown)
VH: B8 VH with A24T, F52S, V57G, A58T, V59A, R62Q, R65K, S66F
VL: B2 VL
notes: 3E5 HC-1/3H10 LC2-2
B23: hu52 (antibody, V domains shown)
VH: B8 VH with Y32F, F52Y, V57D, A58V, R62Q, K63N, R65T, S66N
VL: B2 VL
notes: 1F5 HC-2/3H10 LC2-2
B24: hu146 (antibody, V domains shown)
VH: B8 VH with A24T, F52S, V57G, A58T, V59A, R62Q, R65K, S66F
VL: B5 VL with F31Y, M37L, H96N, V98F
notes: 3E5 HC-1/1A2 LC2-3
B25: hu33 (antibody, V domains shown)
VH: B8 VH with T30I, Y32F, F52Y, V57D, A58V, R62Q, K63N, R65T, S66N
VL: B1 VL with Y31F, L37M, N96H, F98V
notes: 1F5 HC-1/1F5 LC1-3
B26: hu94 (antibody, V domains shown)
VH: B8 VH with I51V, F52Y, V57G, A58S, V59A, R62Q, R65K
VL: B5 VL with F31Y, M37L, H96N, V98F
notes: 2A2 HC-1/1A2 LC2-3
B27: hu103 (antibody, V domains shown)
VH: B8 VH with I51V, F52Y, V57G, A58S, V59A, R62Q, R65K
VL: B8 VL
notes: 2A2 HC-1/3H10 LC2-1
B28: hu39 (antibody, V domains shown)
VH: B8 VH with T30I, Y32F, F52Y, V57D, A58V, R62Q, K63N, R65T, S66N
VL: B2 VL
notes: 1F5 HC-1/3H10 LC2-2

Target: T1, Biotin-huCGRPaSA
Assay: ELISA, supernatant; relative to chimeric C245
How it was run: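 Plates coated with biotin-CGRPaSA at 1.0 μg/mL (90 min, 37°C) and blocked with 2% BSA. Humanized antibodies and chimeric C245 reference, 2.5-fold serial dilutions from 1000 ng/mL, bound 60 min at 37°C. Detection by HRP anti-human IgG (Fc), TMB 15 min, read at 450/620 nm.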

Row | Binder | Relative binding activity, %
1 | B1 | 115%
2 | B2 | 64%
3 | B3 | 102%
4 | B4 | 84%
5 | B5 | 116%
6 | B6 | 104%
7 | B7 | 115%
8 | B8 | 66%
9 | B9 | 106%
10 | B10 | 74%
11 | B11 | 45%
12 | B12 | 98%
13 | B13 | 10%
14 | B14 | 96%
15 | B15 | 76%
16 | B16 | 74%
17 | B17 | 83%
18 | B18 | 20%
19 | B19 | 63%
20 | B20 | 76%
21 | B21 | 64%
22 | B22 | 32%
23 | B23 | 25%
24 | B24 | 107%
25 | B25 | 18%
26 | B26 | 48%
27 | B27 | 88%
28 | B28 | 51%
